Results from the supplement of paper PMC10567573.

B1: ZNF263 (parent)
chain: HLTRHQRTHTGEKPYKCTLCGENF

Variants of: B1
Test: protein stability index of a GFP-peptide fusion (GPS, HEK-293T) (PSI 1-6); higher = more stable
Settings: c terminus: a fixed tail appended
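Note: lentivirally expressed fusions sorted by FACS into six bins by GFP to DsRed ratio, PSI derived from sequencing read proportions per bin multiplied by bin number.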

For HLTRHQRTHTGEKPYICTLCGENF [K16I], which protein stability index is on record?
Its protein stability index is 2.97.

For HLTRHQRTHTGEKPYTCTLCGENF [K16T], which protein stability index is on record?
Its protein stability index is 2.9.

For HLTRHQRTHTGEKPYYCTLCGENF [K16Y], which protein stability index is on record?
The protein stability index was 2.52.

Which protein stability index does the source give for HLTRHQRTHTGEKPYMCTLCGENF [K16M] here?
Its protein stability index is 3.17.

Which protein stability index does the source give for HLTRHQRTHTGEKPYPCTLCGENF [K16P] here?
Its protein stability index is 3.32.

Which protein stability index does the source give for HLTRHQRTHTGEKPYGCTLCGENF [K16G] here?
Its protein stability index is 3.19.

With HLTRHQRTHTGEKPYRCTLCGENF [K16R] as the variant, how does the protein stability index read?
The protein stability index was 2.87.

For HLTRHQRTHTGEKPYHCTLCGENF [K16H], which protein stability index is on record?
The protein stability index was 2.91.

For HLTRHQRTHTGEKPYCCTLCGENF [K16C], which protein stability index is on record?
The protein stability index was 2.83.

With HLTRHQRTHTGEKPYSCTLCGENF [K16S] as the variant, how does the protein stability index read?
The protein stability index was 3.19.

For HLTRHQRTHTGEKPYDCTLCGENF [K16D], which protein stability index is on record?
The protein stability index was 3.74.

Which protein stability index does the source give for HLTRHQRTHTGEKPYNCTLCGENF [K16N] here?
Its protein stability index is 2.82.

Which protein stability index does the source give for HLTRHQRTHTGEKPYLCTLCGENF [K16L] here?
Its protein stability index is 2.33.

Which protein stability index does the source give for HLTRHQRTHTGEKPYECTLCGENF [K16E] here?
The protein stability index was 3.82.

Which protein stability index does the source give for HLTRHQRTHTGEKPYFCTLCGENF [K16F] here?
The protein stability index was 2.7.

Which protein stability index does the source give for HLTRHQRTHTGEKPYQCTLCGENF [K16Q] here?
Its protein stability index is 3.17.

Which protein stability index does the source give for HLTRHQRTHTGEKPYACTLCGENF [K16A] here?
Its protein stability index is 3.72.

Which protein stability index does the source give for HLTRHQRTHTGEKPYVCTLCGENF [K16V] here?
The protein stability index was 2.3.

For HLTRHQRTHTGEKPYWCTLCGENF [K16W], which protein stability index is on record?
The protein stability index was 2.78.

With HLTRHQRTHYGEKPYKCTLCGENF [T10Y] as the variant, how does the protein stability index read?
Its protein stability index is 2.58.

For HLTRHQRTHTGEAPYKCTLCGENF [K13A], which protein stability index is on record?
The protein stability index was 3.28.

Which protein stability index does the source give for HLTRHQRTHTGEDPYKCTLCGENF [K13D] here?
The protein stability index was 2.82.

Which protein stability index does the source give for HLTRHQRTHTGEWPYKCTLCGENF [K13W] here?
Its protein stability index is 2.5.

For HLTRHQRTHTGESPYKCTLCGENF [K13S], which protein stability index is on record?
Its protein stability index is 3.24.

For HLTRHQRTHTGEYPYKCTLCGENF [K13Y], which protein stability index is on record?
The protein stability index was 2.74.

With HLTRHQRTHTGERPYKCTLCGENF [K13R] as the variant, how does the protein stability index read?
The protein stability index was 2.98.

For HLTRHQRTHTGEQPYKCTLCGENF [K13Q], which protein stability index is on record?
The protein stability index was 3.6.

With HLTRHQRTHTGEIPYKCTLCGENF [K13I] as the variant, how does the protein stability index read?
The protein stability index was 2.13.

For HLTRHQRTHTGEFPYKCTLCGENF [K13F], which protein stability index is on record?
Its protein stability index is 2.65.

With HLTRHQRTHTGEEPYKCTLCGENF [K13E] as the variant, how does the protein stability index read?
The protein stability index was 3.64.

For HLTRHQRTHTGECPYKCTLCGENF [K13C], which protein stability index is on record?
The protein stability index was 4.22.

With HLTRHQRTHTGEHPYKCTLCGENF [K13H] as the variant, how does the protein stability index read?
The protein stability index was 2.9.

Which protein stability index does the source give for HLTRHQRTHTGETPYKCTLCGENF [K13T] here?
The protein stability index was 3.54.

For HLTRHQRTHTGEPPYKCTLCGENF [K13P], which protein stability index is on record?
The protein stability index was 2.88.

With HLTRHQRTHTGENPYKCTLCGENF [K13N] as the variant, how does the protein stability index read?
Its protein stability index is 3.16.

With HLTRHQRTHTGEMPYKCTLCGENF [K13M] as the variant, how does the protein stability index read?
Its protein stability index is 2.56.

For HLTRHQRTHTGEGPYKCTLCGENF [K13G], which protein stability index is on record?
The protein stability index was 2.92.

For HLTRHQRTHTGEVPYKCTLCGENF [K13V], which protein stability index is on record?
Its protein stability index is 2.69.

With HLTRHQRTHTGELPYKCTLCGENF [K13L] as the variant, how does the protein stability index read?
Its protein stability index is 2.03.

For HLTRHQRTHTGQKPYKCTLCGENF [E12Q], which protein stability index is on record?
The protein stability index was 2.74.

With HLTRHQRTHTGCKPYKCTLCGENF [E12C] as the variant, how does the protein stability index read?
Its protein stability index is 2.41.

Which protein stability index does the source give for HLTRHQRTHTGNKPYKCTLCGENF [E12N] here?
The protein stability index was 2.7.

Which protein stability index does the source give for HLTRHQRTHTGLKPYKCTLCGENF [E12L] here?
The protein stability index was 2.29.

For HLTRHQRTHTGHKPYKCTLCGENF [E12H], which protein stability index is on record?
The protein stability index was 3.78.

For HLTRHQRTHTGYKPYKCTLCGENF [E12Y], which protein stability index is on record?
The protein stability index was 2.84.

For HLTRHQRTHTGMKPYKCTLCGENF [E12M], which protein stability index is on record?
The protein stability index was 2.71.

Which protein stability index does the source give for HLTRHQRTHTGFKPYKCTLCGENF [E12F] here?
The protein stability index was 2.47.

With HLTRHQRTHTGIKPYKCTLCGENF [E12I] as the variant, how does the protein stability index read?
Its protein stability index is 2.11.

With HLTRHQRTHTGTKPYKCTLCGENF [E12T] as the variant, how does the protein stability index read?
Its protein stability index is 2.59.

With HLTRHQRTHTGKKPYKCTLCGENF [E12K] as the variant, how does the protein stability index read?
The protein stability index was 3.2.

For HLTRHQRTHTGVKPYKCTLCGENF [E12V], which protein stability index is on record?
Its protein stability index is 3.08.

Which protein stability index does the source give for HLTRHQRTHTGPKPYKCTLCGENF [E12P] here?
The protein stability index was 2.8.

Which protein stability index does the source give for HLTRHQRTHTGSKPYKCTLCGENF [E12S] here?
Its protein stability index is 3.19.

With HLTRHQRTHTGAKPYKCTLCGENF [E12A] as the variant, how does the protein stability index read?
Its protein stability index is 3.53.

Which protein stability index does the source give for HLTRHQRTHTGWKPYKCTLCGENF [E12W] here?
The protein stability index was 1.87.

Which protein stability index does the source give for HLTRHQRTHTGRKPYKCTLCGENF [E12R] here?
Its protein stability index is 2.55.

For HLTRHQRTHTGGKPYKCTLCGENF [E12G], which protein stability index is on record?
The protein stability index was 2.23.

With HLTRHQRTHTGDKPYKCTLCGENF [E12D] as the variant, how does the protein stability index read?
Its protein stability index is 2.68.

With HLTRHQRTHTTEKPYKCTLCGENF [G11T] as the variant, how does the protein stability index read?
The protein stability index was 3.01.

Which protein stability index does the source give for HLTRHQRTHTREKPYKCTLCGENF [G11R] here?
Its protein stability index is 2.94.

With HLTRHQRTHTHEKPYKCTLCGENF [G11H] as the variant, how does the protein stability index read?
Its protein stability index is 2.83.

Which protein stability index does the source give for HLTRHQRTHTAEKPYKCTLCGENF [G11A] here?
The protein stability index was 3.15.

With HLTRHQRTHTNEKPYKCTLCGENF [G11N] as the variant, how does the protein stability index read?
Its protein stability index is 2.98.

For HLTRHQRTHTSEKPYKCTLCGENF [G11S], which protein stability index is on record?
The protein stability index was 3.45.

With HLTRHQRTHTEEKPYKCTLCGENF [G11E] as the variant, how does the protein stability index read?
Its protein stability index is 3.92.

Which protein stability index does the source give for HLTRHQRTHTQEKPYKCTLCGENF [G11Q] here?
The protein stability index was 3.55.

Which protein stability index does the source give for HLTRHQRTHTYEKPYKCTLCGENF [G11Y] here?
Its protein stability index is 2.17.

With HLTRHQRTHTCEKPYKCTLCGENF [G11C] as the variant, how does the protein stability index read?
Its protein stability index is 4.07.

For HLTRHQRTHTDEKPYKCTLCGENF [G11D], which protein stability index is on record?
The protein stability index was 3.25.

For HLTRHQRTHTWEKPYKCTLCGENF [G11W], which protein stability index is on record?
The protein stability index was 2.07.

Which protein stability index does the source give for HLTRHQRTHTFEKPYKCTLCGENF [G11F] here?
The protein stability index was 2.72.

With HLTRHQRTHTKEKPYKCTLCGENF [G11K] as the variant, how does the protein stability index read?
The protein stability index was 3.06.

Which protein stability index does the source give for HLTRHQRTHTPEKPYKCTLCGENF [G11P] here?
The protein stability index was 2.86.

For HLTRHQRTHTVEKPYKCTLCGENF [G11V], which protein stability index is on record?
The protein stability index was 2.38.

Which protein stability index does the source give for HLTRHQRTHTIEKPYKCTLCGENF [G11I] here?
The protein stability index was 2.46.

For HLTRHQRTHTLEKPYKCTLCGENF [G11L], which protein stability index is on record?
The protein stability index was 2.99.

Which protein stability index does the source give for HLTRHQRTHTMEKPYKCTLCGENF [G11M] here?
Its protein stability index is 2.84.

For HLTRHQRTHTGEKPYKCTLQGENF [C20Q], which protein stability index is on record?
The protein stability index was 3.44.

Which protein stability index does the source give for HLTRHQRTHTGEKPYKCTLEGENF [C20E] here?
Its protein stability index is 4.11.

With HLTRHQRTHTGEKPYKCTLFGENF [C20F] as the variant, how does the protein stability index read?
Its protein stability index is 2.25.

With HLTRHQRTHTGEKPYKCTLLGENF [C20L] as the variant, how does the protein stability index read?
Its protein stability index is 2.61.

Which protein stability index does the source give for HLTRHQRTHTGEKPYKCTLTGENF [C20T] here?
The protein stability index was 3.93.

With HLTRHQRTHTGEKPYKCTLVGENF [C20V] as the variant, how does the protein stability index read?
Its protein stability index is 3.07.

With HLTRHQRTHTGEKPYKCTLGGENF [C20G] as the variant, how does the protein stability index read?
The protein stability index was 2.92.

For HLTRHQRTHTGEKPYKCTLPGENF [C20P], which protein stability index is on record?
The protein stability index was 2.53.

For HLTRHQRTHTGEKPYKCTLNGENF [C20N], which protein stability index is on record?
Its protein stability index is 3.25.

Which protein stability index does the source give for HLTRHQRTHTGEKPYKCTLMGENF [C20M] here?
Its protein stability index is 2.93.

For HLTRHQRTHTGEKPYKCTLHGENF [C20H], which protein stability index is on record?
Its protein stability index is 2.66.

For HLTRHQRTHTGEKPYKCTLDGENF [C20D], which protein stability index is on record?
The protein stability index was 3.69.

For HLTRHQRTHTGEKPYKCTLRGENF [C20R], which protein stability index is on record?
The protein stability index was 3.03.

Which protein stability index does the source give for HLTRHQRTHTGEKPYKCTLSGENF [C20S] here?
Its protein stability index is 3.23.

With HLTRHQRTHTGEKPYKCTLIGENF [C20I] as the variant, how does the protein stability index read?
Its protein stability index is 2.57.

With HLTRHQRTHTGEKPYKCTLAGENF [C20A] as the variant, how does the protein stability index read?
Its protein stability index is 2.89.

Which protein stability index does the source give for HLTRHQRTHTGEKPYKCTLKGENF [C20K] here?
Its protein stability index is 3.12.
